The results in this text go back to patent US20050054041.

B1: KinI-3 construct E213/L546 (protein)
chain: MEKQNPWTEMEKIRVCVRKRPLGMREVRRGEINIITVEDKETLLVHEKKEAVDLTQYILQHVFYFDEVFGEACTNQDVYMKTTHPLIQHIFNGGNATCFAYGQTGAGKTYTMIGTHENPGLYALAAKDIFRQLEVSQPRKHLFVWISFYEIYCGQLYDLLNRRKRLFAREDSKHMVQIVGLQELQVDSVELLLEVILKGSKERSTGATGVNADSSRSHAVIQIQIKDSAKRTFGRISFIDLAGSERAADARDSDRQTKMEGAEINQSLLALKECIRALDQEHTHTPFRQSKLTQVLKDSFIGNAKTCMIANISPSHVATEHTLNTLRYADRVKELLEHHHHHH
B2: KinI-3 construct E213/S566 (protein)
chain: MEKQNPWTEMEKIRVCVRKRPLGMREVRRGEINIITVEDKETLLVHEKKEAVDLTQYILQHVFYFDEVFGEACTNQDVYMKTTHPLIQHIFNGGNATCFAYGQTGAGKTYTMIGTHENPGLYALAAKDIFRQLEVSQPRKHLFVWISFYEIYCGQLYDLLNRRKRLFAREDSKHMVQIVGLQELQVDSVELLLEVILKGSKERSTGATGVNADSSRSHAVIQIQIKDSAKRTFGRISFIDLAGSERAADARDSDRQTKMEGAEINQSLLALKECIRALDQEHTHTPFRQSKLTQVLKDSFIGNAKTCMIANISPSHVATEHTLNTLRYADRVKELKKGIKCCTSVTSRNRTSGNSLEHHHHHH
B3: KinI-3 construct V195L546 (protein)
chain: VSGYNYGIPHSCIRQNTSEKQNPWTEMEKIRVCVRKRPLGMREVRRGEINIITVEDKETLLVHEKKEAVDLTQYILQHVFYFDEVFGEACTNQDVYMKTTHPLIQHIFNGGNATCFAYGQTGAGKTYTMIGTHENPGLYALAAKDIFRQLEVSQPRKHLFVWISFYEIYCGQLYDLLNRRKRLFAREDSKHMVQIVGLQELQVDSVELLLEVILKGSKERSTGATGVNADSSRSHAVIQIQIKDSAKRTFGRISFIDLAGSERAADARDSDRQTKMEGAEINQSLLALKECIRALDQEHTHTPFRQSKLTQVLKDSFIGNAKTCMIANISPSHVATEHTLNTLRYADRVKEL
B4: KinI-3 construct D143L546 (protein)
chain: DDSQYHTKTGILNATAGDSYVQTEISTSLFSPNYLSAILGDCDIPIIQRISHVSGYNYGIPHSCIRQNTSEKQNPWTEMEKIRVCVRKRPLGMREVRRGEINIITVEDKETLLVHEKKEAVDLTQYILQHVFYFDEVFGEACTNQDVYMKTTHPLIQHIFNGGNATCFAYGQTGAGKTYTMIGTHENPGLYALAAKDIFRQLEVSQPRKHLFVWISFYEIYCGQLYDLLNRRKRLFAREDSKHMVQIVGLQELQVDSVELLLEVILKGSKERSTGATGVNADSSRSHAVIQIQIKDSAKRTFGRISFIDLAGSERAADARDSDRQTKMEGAEINQSLLALKECIRALDQEHTHTPFRQSKLTQVLKDSFIGNAKTCMIANISPSHVATEHTLNTLRYADRVKEL
B5: KinI-3 construct D183L546 (protein)
chain: MDCDIPIIQRISHVSGYNYGIPHSCIRQNTSEKQNPWTEMEKIRVCVRKRPLGMREVRRGEINIITVEDKETLLVHEKKEAVDLTQYILQHVFYFDEVFGEACTNQDVYMKTTHPLIQHIFNGGNATCFAYGQTGAGKTYTMIGTHENPGLYALAAKDIFRQLEVSQPRKHLFVWISFYEIYCGQLYDLLNRRKRLFAREDSKHMVQIVGLQELQVDSVELLLEVILKGSKERSTGATGVNADSSRSHAVIQIQIKDSAKRTFGRISFIDLAGSERAADARDSDRQTKMEGAEINQSLLALKECIRALDQEHTHTPFRQSKLTQVLKDSFIGNAKTCMIANISPSHVATEHTLNTLRYADRVKELLEHHHHHH
B6: KinI-3 construct V195S566 (protein)
chain: MVSGYNYGIPHSCIRQNTSEKQNPWTEMEKIRVCVRKRPLGMREVRRGEINIITVEDKETLLVHEKKEAVDLTQYILQHVFYFDEVFGEACTNQDVYMKTTHPLIQHIFNGGNATCFAYGQTGAGKTYTMIGTHENPGLYALAAKDIFRQLEVSQPRKHLFVWISFYEIYCGQLYDLLNRRKRLFAREDSKHMVQIVGLQELQVDSVELLLEVILKGSKERSTGATGVNADSSRSHAVIQIQIKDSAKRTFGRISFIDLAGSERAADARDSDRQTKMEGAEINQSLLALKECIRALDQEHTHTPFRQSKLTQVLKDSFIGNAKTCMIANISPSHVATEHTLNTLRYADRVKELKKGIKCCTSVTSRNRTSGNSLEHHHHHH
B7: KinI-3 construct E166L546 (protein)
chain: EISTSLFSPNYLSAILGDCDIPIIQRISHVSGYNYGIPHSCIRQNTSEKQNPWTEMEKIRVCVRKRPLGMREVRRGEINIITVEDKETLLVHEKKEAVDLTQYILQHVFYFDEVFGEACTNQDVYMKTTHPLIQHIFNGGNATCFAYGQTGAGKTYTMIGTHENPGLYALAAKDIFRQLEVSQPRKHLFVWISFYEIYCGQLYDLLNRRKRLFAREDSKHMVQIVGLQELQVDSVELLLEVILKGSKERSTGATGVNADSSRSHAVIQIQIKDSAKRTFGRISFIDLAGSERAADARDSDRQTKMEGAEINQSLLALKECIRALDQEHTHTPFRQSKLTQVLKDSFIGNAKTCMIANISPSHVATEHTLNTLRYADRVKEL
B8: KinI-3 construct E233F541 (protein)
chain: LGMREVRRGEINIITVEDKETLLVHEKKEAVDLTQYILQHVFYFDEVFGEACTNQDVYMKTTHPLIQHIFNGGNATCFAYGQTGAGKTYTMIGTHENPGLYALAAKDIFRQLEVSQPRKHLFVWISFYEIYCGQLYDLLNRRKRLFAREDSKHMVQIVGLQELQVDSVELLLEVILKGSKERSTGATGVNADSSRSHAVIQIQIKDSAKRTFGRISFIDLAGSERAADARDSDRQTKMEGAEINQSLLALKECIRALDQEHTHTPFRQSKLTQVLKDSFIGNAKTCMIANISPSHVATEHTLNTLRYAD

For one series, the system named is microtubules.
For “KinI-3 protein, bacterially expressed and purified (construct not stated)”, the “microtubule depolymerization (tubulin in supernatant after centrifugation, SDS PAGE), with ATP” value was “Track 3 shows an increase in tubulin in the supernatant that indicates depolymerization in the presence of ATP” and the “microtubule depolymerization (tubulin in supernatant after centrifugation, SDS PAGE), without hydrolysable ATP” value is on record as “No depolymerization was observed in the absence of ATP (track 4), in the presence of AMP-PNP (track 5) or in the presence of ADP (track 6)”.

The next series has as its target microtubules. This is another data set of the same source.
Regarding B1, the MT depolymerization result is listed as “yes”.
The same measure, in the same setting: to B2 belongs “weak”; to B3, “no”; to B4, “no”.
With B5, the MT depolymerization result is on record as “yes”.
With B6, the MT depolymerization entry is on record as “yes”.
The same measure, in the same setting: with B7 the entry was “no”; with B8, “no”.
